# According to patent publication US20100260765A1 (AstraZeneca / MedImmune, published 2010):
# Where a chain is given by its changes, count along the chain named.
# B1: 33B1 (antibody, V domains shown)
# VH: EVQLVESGGGLVKPGGSLRLSCAASGFTFSSYTMNWVRQAPGKGLEWVSFIDSRSSYIYYADSVKGRFTISRDNAKNSLYLQMNSLRAEDTAVYYCSKDDWFEELWGQGTLVTVSS
# VL: DIQMTQSPSSLSASVGDRVTITCRASQGIRNDLGWYQQKPGKAPKRLIYATSSLQSGVPSRFSGSGSGTEFTLTISSLQPEDFATYYCLHHNSFPWTFGQGTKVEIK
# B2: 32F4 (antibody, V domains shown)
# VH: QLQLQESGPGLVKPSGTLSLSCTVSGGSISSRSDYWGWIRQPPGKGLEWIGTIYYSGNTFYNPSLKSRVTISVDTSKKQFSLKLSSVTAADTAVYYCARQQLVLYYFDYWGQGTLVTVSS
# VL: EIVLTQSPGTLSLSPGERATLSCRTSQSVSSSYLAWYQQKPGQAPRLLIYGASSRATGVPDRFSGSGSGTDFSLTISRLEPEDFAVYYCQQYGSSPPLTFGGGTKVEIK
# B3: 29D4 (antibody, V domains shown)
# VH: B2 VH with G16E, S21T, D34N, N58H, F60Y, T70S, K78N, A90T, V94L, D108E
# VL: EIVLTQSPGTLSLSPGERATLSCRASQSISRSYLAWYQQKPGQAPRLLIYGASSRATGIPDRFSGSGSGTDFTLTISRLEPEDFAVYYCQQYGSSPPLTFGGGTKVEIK
# B4: 22B8 (antibody, V domains shown)
# VH: QLQLQESGPGLVKPSETLSLTCTVSGGSISSRYYYWGWVRQPPGKGLEWIGTIYYSGHTYYNPSLKTRVTISVDTSKNQFSLKLISVTAADTAVYYCATQQLVLYYFDFWGQGTLVTVSS
# VL: EIVLTQSPGTLSLSPGERAALSCRASQSISSSYLAWYQQRPGQAPRLLIYGASSRATGIPDRFNGSGSGTDFTLTISRLEPEDFAVYYCQQFGSSITFGQGTRLEIK
# B5: 27A3 (antibody, V domains shown)
# VH: B2 VH with G16E, S21T, N58D, F60Y, K78N
# VL: B2 VL with T25A, G51A, A52T, S54N, V59I, S73T, Y92H
# B6: 31E11 (antibody, V domains shown)
# VH: QVQLVESGGGLVKPGGSLRLSCAASGFTFSDYYMSWIRQAPGKGLEWVSYISISGSTIYYADSVKGRFTISRDNAKNSLYLQMNSLRAEDTAVYYCARDDFWSGYYFNWFDPWGQGTLVTVSS
# VL: DIQMTQSPSSLSASVGDRVTITCRANQTISTFLNWYQQNPGKAPKLLIYAASSLQSGVPSRFSGSGSGTDFTLTISSLQPEDFATYYCQQTYIIPLTFGGGTKVEIK
# B7: 21H6 (antibody, V domains shown)
# VH: QVQLVESGGGLVKPGGSLRLSCAASGFTFSDYYMSWIRQAPGKGLEWVSYISNSGITIYYADSVKGRFTISRDNAKNSLYLQMNSLRAGDTAVYYCAREEWYSSRWYRNFDYWGQGTLVTVSS
# VL: DIQMTQFSSSLSASVGDRVTITCRASQSISRYLNWYQQKPGKAPKLLIYAASSLQSGVPSRFNGSGSGTDFTLTISSLQPEDFATYYCQQSYSAPLTFGGGTKVEIK
# B8: 33E1 (antibody, V domains shown)
# VH: QVQLQESGPGLVKPSQTLSLTCTVSGGSISSGDHYWSWIRQHPGKGLEWIGHIYYSGSTDYNPSLKSRVTISVDTSKNHFSLKLNSVTAADTAVYYCARTNSSSWSDWYFDLWGRGTLVTVSS
# VL: DIVMTQSPDSLAVSLGERATINCKSSQSILYSSNNKNYLAWYQRKPGQPPILLIHWASTRESGVPDRFSGSGSRTDFTLTISSLQAEDVAVYYCQQYFITPWTFGQGTKVEIK
# B9: 33D5 (antibody, V domains shown)
# VH: QVQLVQSGAEVKKPGASVKVSCKASGYTFGSYDINWVRQATGQGLEWMGWMNPNSGNTGYAQKFQGRVTLTRNTSIRTVYMELSSLRSEDTAVYYCARGGYSNLGWFDPWGQGSLVTVSS
# VL: DIQMTQSPSSVSVSVGDRVTITCRASQGISSWLAWYQQKPGKAPKLLIYAASSLQSGVPSRFSGSGSGTDFTLTISSLQPEDFATYYCQQANSFPFTFGPGTKVDIK
# B10: 32F4 (antibody, V domains shown)
# VH: B2 VH
# VL: B2 VL
# Molecular target: human KDR on cells (human, UniProt P35968 20-1356)
# Sequence (P35968 20-1356): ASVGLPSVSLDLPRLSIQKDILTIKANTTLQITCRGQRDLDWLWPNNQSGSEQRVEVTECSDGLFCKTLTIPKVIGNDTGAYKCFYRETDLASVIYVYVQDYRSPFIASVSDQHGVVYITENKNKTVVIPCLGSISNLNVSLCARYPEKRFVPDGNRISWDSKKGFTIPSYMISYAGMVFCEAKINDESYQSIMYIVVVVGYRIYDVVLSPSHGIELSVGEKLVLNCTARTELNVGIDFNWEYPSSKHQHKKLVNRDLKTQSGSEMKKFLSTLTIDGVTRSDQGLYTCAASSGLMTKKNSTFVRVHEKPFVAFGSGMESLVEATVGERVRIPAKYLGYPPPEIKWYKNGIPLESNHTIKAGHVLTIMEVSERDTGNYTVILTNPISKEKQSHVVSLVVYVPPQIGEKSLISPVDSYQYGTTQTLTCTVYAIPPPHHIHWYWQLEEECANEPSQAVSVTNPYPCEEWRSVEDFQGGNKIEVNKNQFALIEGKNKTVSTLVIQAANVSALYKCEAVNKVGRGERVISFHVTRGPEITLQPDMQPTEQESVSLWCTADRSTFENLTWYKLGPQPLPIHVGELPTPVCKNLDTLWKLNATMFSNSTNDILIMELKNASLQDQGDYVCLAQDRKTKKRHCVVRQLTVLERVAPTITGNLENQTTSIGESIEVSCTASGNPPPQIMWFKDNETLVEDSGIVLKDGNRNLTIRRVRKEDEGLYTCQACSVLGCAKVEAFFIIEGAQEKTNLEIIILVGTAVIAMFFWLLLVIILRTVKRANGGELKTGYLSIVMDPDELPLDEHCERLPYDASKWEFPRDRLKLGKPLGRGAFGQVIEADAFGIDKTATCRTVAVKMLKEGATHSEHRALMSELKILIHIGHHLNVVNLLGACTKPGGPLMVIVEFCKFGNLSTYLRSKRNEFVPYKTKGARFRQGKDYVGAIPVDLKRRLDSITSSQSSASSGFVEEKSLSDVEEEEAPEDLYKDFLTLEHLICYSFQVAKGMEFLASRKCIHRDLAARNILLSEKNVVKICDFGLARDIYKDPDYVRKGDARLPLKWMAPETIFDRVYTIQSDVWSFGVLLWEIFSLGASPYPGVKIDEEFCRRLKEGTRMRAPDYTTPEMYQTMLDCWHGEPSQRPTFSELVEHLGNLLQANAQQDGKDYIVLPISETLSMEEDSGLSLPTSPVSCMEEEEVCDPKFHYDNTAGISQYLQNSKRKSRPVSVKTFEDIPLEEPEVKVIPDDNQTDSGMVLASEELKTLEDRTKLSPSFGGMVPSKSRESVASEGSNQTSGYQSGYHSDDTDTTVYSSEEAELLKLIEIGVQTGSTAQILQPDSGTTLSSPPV
# Assay: cell-based or functional assay
"% Inhibition (Average) of VEGF-C-mediated KDR activity, antibody 1 nM","% Inhibition (Average) of VEGF-C-mediated KDR activity, antibody 10 nM","% Inhibition (Average) of VEGF-C-mediated KDR activity, antibody 100 nM","% Inhibition (N = 1) of VEGF-C-mediated KDR activity, antibody 1 nM","% Inhibition (N = 1) of VEGF-C-mediated KDR activity, antibody 10 nM","% Inhibition (N = 1) of VEGF-C-mediated KDR activity, antibody 100 nM","% Inhibition (N = 2) of VEGF-C-mediated KDR activity, antibody 1 nM","% Inhibition (N = 2) of VEGF-C-mediated KDR activity, antibody 10 nM","% Inhibition (N = 2) of VEGF-C-mediated KDR activity, antibody 100 nM",Binder
49%,62%,68%,45%,61%,64%,53%,62%,73%,B1
43%,77%,81%,55%,76%,75%,31%,79%,86%,B2
34%,71%,76%,42%,71%,74%,25%,72%,79%,B3
27%,65%,74%,38%,74%,71%,17%,56%,77%,B4
39%,78%,75%,40%,75%,73%,38%,80%,77%,B5
40%,83%,84%,47%,81%,84%,33%,85%,84%,B6
28%,84%,94%,23%,78%,93%,34%,90%,95%,B7
32%,69%,79%,29%,75%,83%,36%,64%,75%,B8

# Molecular target: T1, KDR (human, UniProt P35968 20-1356)
# T1 sequence (P35968 20-1356): as above
# Assay: cell-based or functional assay
"% Inhibition of VEGF165-mediated 6-keto Prostaglandin F1α release at 133 nM Antibody Concentration, Average","% Inhibition of VEGF165-mediated 6-keto Prostaglandin F1α release at 133 nM Antibody Concentration, N = 1","% Inhibition of VEGF165-mediated 6-keto Prostaglandin F1α release at 133 nM Antibody Concentration, N = 2",Binder
36%,15%,57%,B9
73%,69%,76%,B10

# Molecular target: T1, KDR
# Assay: cell-based or functional assay
# Remark: another data set of the same source
"Activity at 133 nM (% Inhibition), 24-hour Pre-incubation at 37° C., Average","Activity at 133 nM (% Inhibition), 24-hour Pre-incubation at 37° C., N = 1","Activity at 133 nM (% Inhibition), 24-hour Pre-incubation at 37° C., N = 2",Binder
-15%,8%,-38%,B9
22%,25%,18%,B10

# Molecular target: T1, KDR
# Assay: cell-based or functional assay
# Remark: another data set of the same source
"% of Max VEGF KDR pTyr Activity (at 133 nM antibody concentration), Average","% of Max VEGF KDR pTyr Activity (at 133 nM antibody concentration), N = 1","% of Max VEGF KDR pTyr Activity (at 133 nM antibody concentration), N = 2",Binder
17%,20%,15%,B9

# Molecular target: T1, KDR
# Assay: cell-based or functional assay
# Remark: another data set of the same source
Binder,"Activity at 133 nM Antibody Concentration (% Survival Inhibition), Average","Activity at 133 nM Antibody Concentration (% Survival Inhibition), N = 1","Activity at 133 nM Antibody Concentration (% Survival Inhibition), N = 2"
B9,5%,13%,-2%
B10,73%,88%,58%

# Molecular target: T1, KDR
# Assay: cell-based or functional assay
# Remark: another data set of the same source
"Activity at 133 nM (% Inhibition), 1-hour Pre-incubation at 4° C., Average","Activity at 133 nM (% Inhibition), 1-hour Pre-incubation at 4° C., N = 1","Activity at 133 nM (% Inhibition), 1-hour Pre-incubation at 4° C., N = 2",Binder
49%,39%,60%,B9
64%,60%,68%,B10
